Reference: CN114984207A (ZHEJIANG TERUISI PHARMACEUTICAL INC, dated 2022)

Experiments:
[1] = target: T1, 人PD-1蛋白(Acro PD1-HB2F2) (human, UniProt Q15116 25-167, limits assumed); test: ELISA, human PD-1 protein coated at 20 ng/mL, antibody titrated from 1000 ng/mL
T1 construct: Bought protein coated on the ELISA plate; also called 抗原PD-1蛋白; human PD-1 protein

[2] = target: T2, PD-1蛋白 (冻干, fortebio assay) (UniProt Q15116 25-167, limits assumed); test: BLI (Octet K2), antibody captured on Protein A sensor, PD-1 protein as analyte from 50 nM, 2-fold dilutions
T2 construct: also called 抗原PD-1蛋白; 冻干PD-1蛋白
T2 sequence (Q15116 25-167 limits assumed): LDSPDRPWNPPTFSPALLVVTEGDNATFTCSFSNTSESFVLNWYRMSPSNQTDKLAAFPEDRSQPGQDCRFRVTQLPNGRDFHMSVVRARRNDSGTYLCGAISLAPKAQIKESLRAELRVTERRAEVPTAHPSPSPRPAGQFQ

T1 sequence (Q15116 25-167 limits assumed): as above

B1: 抗PD-1纳米抗体 N7 (Fc fusion)
chain: QVQLQESGGGLVQPGGSLRLSCAASGSTYLRFSMGWFRQVPGKEREGVAAIGGDGRTSYADSVKGRFTISKDNSKNTLYLDMNSLRAEDTAVYYCAAAVLLDGSFSLLAPLVPYKYDYWGQGTLVTVSSERKSSVECPPCPAPEFLGGPSVFLFPPKPKDTLMISRTPEVTCVVVDVSQEDPEVQFNWYVDGVEVHNAKTKPREEQFNSTYRVVSVLTVLHQDWLNGKEYKCKVSNKGLPSSIEKTISKAKGQPREPQVYTLPPSQEEMTKNQVSLTCLVKGFYPSDIAVEWESNGQPENNYKTTPPVLDSDGSFFLYSRLTVDKSRWQEGNVFSCSVMHEALHNHYTQKSLSLSLGK
Question: B1 was tested. Which EC50 [1] did it give?
Answer: Its EC50 is 9.98 ng/mL.

Question: And the kon [2]?
Answer: The kon was 274000 M⁻¹ s⁻¹.
